Assay results reported in patent US20160033516A1 (SALK INSTITUTE FOR BIOLOGICAL STUDIES, published 2016).
Blank lines part the entries; values can stand above or below the molecule they belong to.

What was measured:
[1] = target: ACLY-like H760 peptide AGAG-X-AGAG, X = 1-pTza (mammalian); assay: synthetic peptide dot blot array
[2] = target: GNB1 H266 peptide MTYS-X-DNII, X = 1-pTza (mammalian); assay: synthetic peptide dot blot array
[3] = target: Histone H4 H18 peptide GAKR-X-RKVL, X = 1-pTza (mammalian); assay: synthetic peptide dot blot array
[4] = target: NME1 H118 peptide RNII-X-GSDS, X = 1-pTza (mammalian); assay: synthetic peptide dot blot array
[5] = target: ACLY (ATP-citrate lyase) in mammalian cell lysates (human) (UniProt P53396); assay: SILAC LC-MS/MS of mAb column eluate E1, FLAG-NME1 293 lysate, untreated over acid/heat-treated
[6] = target: GAPDH in lysates of FLAG-NME1 HEK 293 cells (human) (UniProt P04406); assay: as above
[7] = target: Histone H4 in lysates of FLAG-NME1 HEK 293 cells (human) (UniProt P62805); assay: as above
[8] = target: LDHA in lysates of FLAG-NME1 HEK 293 cells (human) (UniProt P00338); assay: as above
[9] = target: NME1 in lysates of FLAG-NME1 HEK 293 cells (human) (UniProt P15531); assay: as above
[10] = target: NME2 in lysates of FLAG-NME1 HEK 293 cells (human) (UniProt P22392); assay: as above
[11] = target: RPS3A in lysates of FLAG-NME1 HEK 293 cells (human) (UniProt P61247); assay: as above
[12] = target: TCP1 in lysates of FLAG-NME1 HEK 293 cells (human) (UniProt P17987); assay: as above
[13] = target: TUBB in lysates of FLAG-NME1 HEK 293 cells (human) (UniProt P07437); assay: as above
[14] = target: ACLY (ATP-citrate lyase) in mammalian cell lysates (human) (UniProt P53396); assay: SILAC LC-MS/MS of mAb column eluate E2, FLAG-NME1 293 lysate, untreated over acid/heat-treated
[15] = target: GAPDH in lysates of FLAG-NME1 HEK 293 cells (human) (UniProt P04406); assay: as above
[16] = target: Histone H4 in lysates of FLAG-NME1 HEK 293 cells (human) (UniProt P62805); assay: as above
[17] = target: LDHA in lysates of FLAG-NME1 HEK 293 cells (human) (UniProt P00338); assay: as above
[18] = target: NME1 in lysates of FLAG-NME1 HEK 293 cells (human) (UniProt P15531); assay: as above
[19] = target: NME2 in lysates of FLAG-NME1 HEK 293 cells (human) (UniProt P22392); assay: as above
[20] = target: PGAM, endogenous, in lysates of FLAG-NME1 HEK 293 cells (human) (UniProt P18669); assay: as above
[21] = target: RPS3A in lysates of FLAG-NME1 HEK 293 cells (human) (UniProt P61247); assay: as above
[22] = target: SCS (succinyl-CoA synthetase) in mammalian cell lysates (human) (UniProt P53597); assay: as above
[23] = target: TCP1 in lysates of FLAG-NME1 HEK 293 cells (human) (UniProt P17987); assay: as above
[24] = target: TUBB in lysates of FLAG-NME1 HEK 293 cells (human) (UniProt P07437); assay: as above
[25] = target: YWHAB in lysates of FLAG-NME1 HEK 293 cells (human) (UniProt P31946); assay: as above
[26] = target: 506 proteins enriched by at least 2-fold in 3-pHis column elutions E1-E3; assay: SILAC LC-MS/MS of mAb column eluates E1-E3, FLAG-NME1 293 lysate
[27] = target: PGAM, endogenous, in lysates of FLAG-NME1 HEK 293 cells (human) (UniProt P18669); assay: SILAC LC-MS/MS of mAb column eluate E1, FLAG-NME1 293 lysate, untreated over acid/heat-treated
[28] = target: YWHAB in lysates of FLAG-NME1 HEK 293 cells (human) (UniProt P31946); assay: as above
[29] = target: GNB1 in lysates of FLAG-NME1 HEK 293 cells (human, UniProt P62873 2-340, phosphohistidine, annotated site printed H226 in Table 1 (H266 elsewhere)); assay: SILAC LC-MS/MS of mAb column eluate E2, FLAG-NME1 293 lysate, untreated over acid/heat-treated
Description: A dramatic decrease of pHis in the heavy lysates was confirmed by immunoblotting. Both lysates were neutralized, diluted (1:5 to 1 M urea, pH 8), mixed together and one half was passed over the 1-pHis mAb column while the other half was passed over the 3-pHis mAb column. LC-MS/MS analysis was performed on tryptic peptides derived from proteins that eluted off the columns at pH 11. A SILAC ratio (light/heavy) was calculated for each peptide to determine which proteins were enriched in the untreated, light vs. heavy lysates that had been treated to reduce pHis.
After crosslinking, pHis mAb resins (˜750 μl each) were packed in 10 ml chromatography columns (BioRad) and stored at 4° C. in or equilibrated with Wash/Binding Buffer (50 mM Tris, 30 mM sodium carbonate pH 8 (prepared by dilution of 100 mM sodium carbonate buffer pH 10 with H₂O and 1 M Tris pH 7)). Stable isotope labeling by amino acids in cell culture (SILAC) was performed on FLAG-NME1 293 cells which were metabolically labeled with Arg (¹³C₆/¹⁵N₄) and Lys (¹³C₆). These “heavy” labeled cells were used as an internal negative control for pHis mAb binding. Non-labeled, “light” FLAG-NME1 293 cells were cultured in parallel. For cell lysis, precautions were taken to preserve pHis and avoid salts and detergents that can interfere with downstream MS analysis. […]

YWHAB in lysates of FLAG-NME1 HEK 293 cells (human), sequence (P31946 whole entry): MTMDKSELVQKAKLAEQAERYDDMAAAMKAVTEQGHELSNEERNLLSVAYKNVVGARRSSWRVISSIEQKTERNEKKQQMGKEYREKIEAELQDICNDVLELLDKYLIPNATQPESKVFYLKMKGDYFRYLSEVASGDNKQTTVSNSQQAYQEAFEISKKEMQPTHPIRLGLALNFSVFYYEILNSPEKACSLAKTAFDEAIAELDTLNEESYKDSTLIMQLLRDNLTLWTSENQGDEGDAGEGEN
TCP1 in lysates of FLAG-NME1 HEK 293 cells (human), sequence (P17987 whole entry): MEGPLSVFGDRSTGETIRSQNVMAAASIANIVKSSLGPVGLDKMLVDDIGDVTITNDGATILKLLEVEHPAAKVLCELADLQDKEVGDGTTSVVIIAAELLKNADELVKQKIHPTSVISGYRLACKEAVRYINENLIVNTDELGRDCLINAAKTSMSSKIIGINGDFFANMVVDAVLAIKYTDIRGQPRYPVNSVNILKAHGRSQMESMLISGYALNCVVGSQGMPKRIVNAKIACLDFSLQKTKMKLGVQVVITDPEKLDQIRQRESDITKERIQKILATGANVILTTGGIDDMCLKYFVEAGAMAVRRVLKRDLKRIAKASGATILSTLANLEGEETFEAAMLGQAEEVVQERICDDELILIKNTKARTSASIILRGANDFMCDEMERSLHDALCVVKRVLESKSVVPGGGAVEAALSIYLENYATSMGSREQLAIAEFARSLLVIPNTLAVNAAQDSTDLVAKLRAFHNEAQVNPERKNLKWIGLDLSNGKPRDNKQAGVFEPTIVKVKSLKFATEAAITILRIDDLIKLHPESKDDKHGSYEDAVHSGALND
PGAM, endogenous, in lysates of FLAG-NME1 HEK 293 cells (human), sequence (P18669 2-254 limits assumed): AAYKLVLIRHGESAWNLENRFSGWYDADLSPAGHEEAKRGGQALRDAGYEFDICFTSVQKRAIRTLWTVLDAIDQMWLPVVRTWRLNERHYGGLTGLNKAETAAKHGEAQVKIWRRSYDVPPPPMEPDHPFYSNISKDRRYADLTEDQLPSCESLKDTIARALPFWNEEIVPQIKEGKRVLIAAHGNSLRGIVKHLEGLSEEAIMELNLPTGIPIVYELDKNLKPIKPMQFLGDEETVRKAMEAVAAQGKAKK
TUBB in lysates of FLAG-NME1 HEK 293 cells (human), sequence (P07437 whole entry): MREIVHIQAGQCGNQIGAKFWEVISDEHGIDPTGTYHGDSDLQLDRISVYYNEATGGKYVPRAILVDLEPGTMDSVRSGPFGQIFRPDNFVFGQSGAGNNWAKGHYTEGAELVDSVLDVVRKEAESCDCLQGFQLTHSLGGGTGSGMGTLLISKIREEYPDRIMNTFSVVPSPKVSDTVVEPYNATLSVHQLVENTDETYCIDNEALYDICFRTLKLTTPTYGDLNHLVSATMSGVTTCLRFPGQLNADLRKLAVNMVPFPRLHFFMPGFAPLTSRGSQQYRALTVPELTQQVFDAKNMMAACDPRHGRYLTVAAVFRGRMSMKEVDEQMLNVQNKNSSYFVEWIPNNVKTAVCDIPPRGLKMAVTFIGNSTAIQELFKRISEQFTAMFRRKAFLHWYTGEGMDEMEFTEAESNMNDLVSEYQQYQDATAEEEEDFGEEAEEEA
NME1 in lysates of FLAG-NME1 HEK 293 cells (human), sequence (P15531 2-152 limits assumed): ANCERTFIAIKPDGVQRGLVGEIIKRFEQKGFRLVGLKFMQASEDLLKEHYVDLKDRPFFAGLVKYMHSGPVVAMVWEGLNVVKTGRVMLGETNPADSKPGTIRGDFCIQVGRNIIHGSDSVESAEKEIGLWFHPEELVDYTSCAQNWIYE
NME2 in lysates of FLAG-NME1 HEK 293 cells (human), sequence (P22392 whole entry): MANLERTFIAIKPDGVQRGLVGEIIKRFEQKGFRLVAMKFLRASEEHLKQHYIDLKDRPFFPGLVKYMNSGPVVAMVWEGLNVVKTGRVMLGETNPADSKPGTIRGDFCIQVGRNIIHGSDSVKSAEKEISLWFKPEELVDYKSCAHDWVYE
ACLY (ATP-citrate lyase) in mammalian cell lysates (human), sequence (P53396 whole entry): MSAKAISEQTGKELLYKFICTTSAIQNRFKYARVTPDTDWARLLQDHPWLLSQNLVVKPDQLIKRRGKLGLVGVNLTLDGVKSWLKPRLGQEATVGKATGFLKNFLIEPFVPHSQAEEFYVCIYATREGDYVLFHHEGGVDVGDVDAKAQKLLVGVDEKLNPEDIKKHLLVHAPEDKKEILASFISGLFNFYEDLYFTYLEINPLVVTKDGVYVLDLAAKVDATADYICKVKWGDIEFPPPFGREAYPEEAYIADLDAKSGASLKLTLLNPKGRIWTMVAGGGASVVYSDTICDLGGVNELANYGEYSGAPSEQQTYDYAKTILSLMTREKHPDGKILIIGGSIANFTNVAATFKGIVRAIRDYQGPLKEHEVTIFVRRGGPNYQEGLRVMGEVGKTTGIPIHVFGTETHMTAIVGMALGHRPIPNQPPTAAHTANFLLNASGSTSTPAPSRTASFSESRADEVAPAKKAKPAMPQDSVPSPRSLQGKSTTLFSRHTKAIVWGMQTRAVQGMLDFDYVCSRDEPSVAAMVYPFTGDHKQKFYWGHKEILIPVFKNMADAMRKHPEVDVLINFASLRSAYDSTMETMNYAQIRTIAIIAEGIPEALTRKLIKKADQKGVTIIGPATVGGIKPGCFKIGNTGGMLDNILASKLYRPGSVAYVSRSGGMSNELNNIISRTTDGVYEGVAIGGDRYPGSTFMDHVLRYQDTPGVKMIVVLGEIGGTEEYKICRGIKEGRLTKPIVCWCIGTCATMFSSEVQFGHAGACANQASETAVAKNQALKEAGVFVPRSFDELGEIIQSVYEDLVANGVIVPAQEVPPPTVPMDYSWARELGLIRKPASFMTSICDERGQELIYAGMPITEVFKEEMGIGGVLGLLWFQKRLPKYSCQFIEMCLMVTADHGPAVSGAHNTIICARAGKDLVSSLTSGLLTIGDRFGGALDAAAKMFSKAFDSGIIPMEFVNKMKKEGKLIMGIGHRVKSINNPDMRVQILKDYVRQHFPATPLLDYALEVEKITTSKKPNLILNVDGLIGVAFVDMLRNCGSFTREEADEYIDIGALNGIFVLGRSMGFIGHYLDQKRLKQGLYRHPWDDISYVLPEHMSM
GAPDH in lysates of FLAG-NME1 HEK 293 cells (human), sequence (P04406 2-335 limits assumed): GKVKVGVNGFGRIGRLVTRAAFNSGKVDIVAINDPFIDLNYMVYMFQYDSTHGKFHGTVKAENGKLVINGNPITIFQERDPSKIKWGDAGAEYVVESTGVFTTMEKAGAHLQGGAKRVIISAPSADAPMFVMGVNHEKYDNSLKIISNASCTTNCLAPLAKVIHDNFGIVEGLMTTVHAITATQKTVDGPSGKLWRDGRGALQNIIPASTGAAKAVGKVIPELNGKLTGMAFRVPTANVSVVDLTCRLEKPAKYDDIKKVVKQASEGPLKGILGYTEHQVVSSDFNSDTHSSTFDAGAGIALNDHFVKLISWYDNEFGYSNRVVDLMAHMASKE
GNB1 in lysates of FLAG-NME1 HEK 293 cells, sequence (P62873 2-340 limits assumed): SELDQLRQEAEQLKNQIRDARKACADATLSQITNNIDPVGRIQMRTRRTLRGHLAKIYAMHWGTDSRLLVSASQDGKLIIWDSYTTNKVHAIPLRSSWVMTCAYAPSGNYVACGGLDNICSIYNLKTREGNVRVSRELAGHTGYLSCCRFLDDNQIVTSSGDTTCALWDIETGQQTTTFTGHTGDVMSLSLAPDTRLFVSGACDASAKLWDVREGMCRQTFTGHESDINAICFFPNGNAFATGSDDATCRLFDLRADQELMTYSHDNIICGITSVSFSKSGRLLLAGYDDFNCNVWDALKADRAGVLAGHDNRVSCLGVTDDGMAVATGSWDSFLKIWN
SCS (succinyl-CoA synthetase) in mammalian cell lysates (human), sequence (P53597 41-346): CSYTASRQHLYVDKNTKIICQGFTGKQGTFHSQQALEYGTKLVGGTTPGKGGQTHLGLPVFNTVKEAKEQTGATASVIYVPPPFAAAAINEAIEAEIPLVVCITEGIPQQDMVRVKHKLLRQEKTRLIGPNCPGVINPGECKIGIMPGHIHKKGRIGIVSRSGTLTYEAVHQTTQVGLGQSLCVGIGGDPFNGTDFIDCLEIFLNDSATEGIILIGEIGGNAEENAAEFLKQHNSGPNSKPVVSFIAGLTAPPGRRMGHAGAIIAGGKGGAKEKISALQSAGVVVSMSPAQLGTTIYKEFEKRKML

least amount detected [1]: 20 ng
least amount detected [2]: 20 ng
least amount detected [3]: 20 ng
least amount detected [4]: 20 ng
Molecule: anti-1-pHis mAb SC50-3 (antibody)

least amount detected [1]: 20 ng
least amount detected [2]: 20 ng
least amount detected [3]: 20 ng
least amount detected [4]: 20 ng
SILAC ratio (light/heavy) [5]: 5.29 fold
SILAC ratio (light/heavy) [6]: 3.4 fold
SILAC ratio (light/heavy) [7]: 19.1 fold
SILAC ratio (light/heavy) [8]: 4.18 fold
SILAC ratio (light/heavy) [9]: 15.1 fold
SILAC ratio (light/heavy) [10]: 15.6 fold
SILAC ratio (light/heavy) [11]: 7.21 fold
SILAC ratio (light/heavy) [12]: 6.1 fold
SILAC ratio (light/heavy) [13]: 3.55 fold
SILAC ratio (light/heavy) [14]: 7.2 fold
SILAC ratio (light/heavy) [15]: 4.45 fold
SILAC ratio (light/heavy) [16]: 9.8 fold
SILAC ratio (light/heavy) [17]: 6.5 fold
SILAC ratio (light/heavy) [18]: 51.9 fold
SILAC ratio (light/heavy) [19]: 56 fold
SILAC ratio (light/heavy) [20]: 4.25 fold
SILAC ratio (light/heavy) [21]: 9.1 fold
SILAC ratio (light/heavy) [22]: 1.68 fold
SILAC ratio (light/heavy) [23]: 5.99 fold
SILAC ratio (light/heavy) [24]: 4.49 fold
SILAC ratio (light/heavy) [25]: 2.04 fold
Molecule: anti-1-pHis mAb SC1-1 (antibody)

fold enrichment (SILAC ratio light/heavy) [26]: > 2 fold
SILAC ratio (light/heavy) [5]: 11.6 fold
SILAC ratio (light/heavy) [6]: 4.76 fold
SILAC ratio (light/heavy) [7]: 22.8 fold
SILAC ratio (light/heavy) [8]: 6.6 fold
SILAC ratio (light/heavy) [9]: 118 fold
SILAC ratio (light/heavy) [10]: 3.46 fold
SILAC ratio (light/heavy) [27]: 4.01 fold
SILAC ratio (light/heavy) [11]: 10.4 fold
SILAC ratio (light/heavy) [12]: 5.98 fold
SILAC ratio (light/heavy) [13]: 4.33 fold
SILAC ratio (light/heavy) [28]: 7.43 fold
SILAC ratio (light/heavy) [14]: 2.99 fold
SILAC ratio (light/heavy) [15]: 3.32 fold
SILAC ratio (light/heavy) [16]: 17.9 fold
SILAC ratio (light/heavy) [17]: 3.08 fold
SILAC ratio (light/heavy) [18]: 2.14 fold
SILAC ratio (light/heavy) [20]: 2.44 fold
SILAC ratio (light/heavy) [21]: 4.98 fold
SILAC ratio (light/heavy) [23]: 3.2 fold
SILAC ratio (light/heavy) [24]: 2.09 fold
SILAC ratio (light/heavy) [25]: 1.63 fold
SILAC ratio (light/heavy) [29]: 1.21 fold
B1: anti-3-pHis mAb SC39-4 (antibody, V domains shown, not shown: a dimerising Fc or GST)
VH: ESGGRLVTPGGSLTLTCTVSGFSLSRYNMGWVRQAPGKGLEWIGWIPFRGSLKYATWATGRFTISRTSTTVDLRMTGLTAADTATYFCVRSSDGFDLWGPGTLVTVSS
VL: QFVMTQTPASVEAVVGGTVTIKCQASRDTGDGLIWYQQKPGQPPKRLIYKASTVASGVPSRFKGRGSGTDFTLTISDLECADAATYYCHSNFYNRWTYGNAFGGGTEVVVKG
notes: Rabbit hybridoma monoclonal IgG, used as whole IgG (free or crosslinked to protein-A agarose)
